Assay results as given in article PMC10872421.
Blank lines part the entries; values can stand above or below the substance they belong to.

Tests used:
[1] = target: FMAL-labeled RLC-exchanged full-length cardiac myosin (porcine (ventricles) | human) (UniProt P79293); assay: FRET or BRET
[2] = target: FMAL-labeled F-actin (rabbit) (UniProt P68135); assay: FRET or BRET
[3] = target: FMAL-labeled F-actin (rabbit) (UniProt P68135); assay: co-sedimentation
[4] = target: FMAL-labeled F-actin (rabbit skeletal muscle) (rabbit) (UniProt P68135); assay: FRET or BRET

Substance: C0-C2^(cys249, E334K), PKA-phosphorylated (domain or fragment)
FLT-FRET at 2.5 μM relative to WT (relative to WT) [1]: 1.7

Substance: C0-C2^cys85 (domain or fragment)
EC50 [1]: 9 µM
EC50 [2]: 1.4 µM

Substance: TMR-C0-C2^(cys249, L352P) (domain or fragment)
EC50 [4]: 1.31 µM

Substance: TMR-C0-C2^cys249 (domain or fragment)
EC50 [4]: 2.12 µM

Substance: C0-C2^cys330 (domain or fragment)
EC50 [1]: 6.9 µM
EC50 [2]: 6.3 µM

Substance: C0-C2^(cys249, L349R) (domain or fragment)
FLT-FRET at 2.5 μM relative to WT (relative to WT) [2]: 1.1

Substance: C0-C2^(cys330, E334K), PKA-phosphorylated (domain or fragment)
FLT-FRET at 2.5 μM relative to WT (relative to WT) [1]: 2

Substance: C0-C2^cys85, PKA-phosphorylated (domain or fragment)
fold increase of EC50 upon phosphorylation [3]: 1.1 fold
fold change of EC50 upon phosphorylation [2]: 2.9 fold
reduction of FRET at 2.5 μM upon phosphorylation [2]: 52%

The next lines start with the values.

EC50 [1]: 3.4 µM
EC50 [2]: 3 µM
Substance: C0-C2^cys249 (domain or fragment)

FLT-FRET at 2.5 μM relative to WT (relative to WT) [2]: 1.31
Substance: C0-C2^(cys249, L349R), PKA-phosphorylated (domain or fragment)

fold increase of EC50 upon phosphorylation [3]: 1.6 fold
fold change of EC50 upon phosphorylation [2]: 1.7 fold
reduction of FRET at 2.5 μM upon phosphorylation [2]: 52%
Substance: C0-C2^cys249, PKA-phosphorylated (domain or fragment)

FLT-FRET at 2.5 μM relative to WT (relative to WT) [2]: 1.1
Substance: C0-C2^(cys330, R282W) (domain or fragment)

FLT-FRET at 2.5 μM relative to WT (relative to WT) [1]: 1.6
Substance: C0-C2^(cys330, L349R) (domain or fragment)
